Laboratory results from the supplement of paper PMC10567573.

B1: KRT13 (parent)
chain: TSSASVTTTSNASGRRTSDVRRP

Variants of: B1
Assay: protein stability index of a GFP-peptide fusion (GPS, HEK-293T) (PSI 1-6); higher = more stable
Settings: c terminus: native
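Note: lentivirally expressed fusions sorted by FACS into six bins by GFP to DsRed ratio, PSI derived from sequencing read proportions per bin multiplied by bin number.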

Compared with TSSASVWTTSNASGRRTSDVRRP [T7W], TSSASVKTTSNASGRRTSDVRRP [T7K] is lower in protein stability index: 3.38 for the first, 2.19 for the second.

Going from TSSASVMTTSNASGRRTSDVRRP [T7M] to TSSASVQTTSNASGRRTSDVRRP [T7Q], the protein stability index falls from 3.08 to 1.3.

First: TSSASVDTTSNASGRRTSDVRRP [T7D]
Second: TSSASVGTTSNASGRRTSDVRRP [T7G]
The protein stability index of the first is higher: 3.4 for the first, 1.17 for the second.

Compared with TSSASVRTTSNASGRRTSDVRRP [T7R], TSSASVHTTSNASGRRTSDVRRP [T7H] is lower in protein stability index: 2.97 for the first, 2.54 for the second.

First: TSSASVITTSNASGRRTSDVRRP [T7I]
Second: TSSASVTTTSNHSGRRTSDVRRP [A12H]
The protein stability index of the first is lower: 1.93 for the first, 3.71 for the second.

Going from TSSASVTTTSNFSGRRTSDVRRP [A12F] to TSSASVTTTSNDSGRRTSDVRRP [A12D], the protein stability index falls from 3.48 to 3.12.

Compared with TSSASVTTTSNISGRRTSDVRRP [A12I], TSSASVTTTSNSSGRRTSDVRRP [A12S] is lower in protein stability index: 2.81 for the first, 2.19 for the second.

Compared with TSSASVTTTSNPSGRRTSDVRRP [A12P], TSSASVTTTSNCSGRRTSDVRRP [A12C] is higher in protein stability index: 2.25 for the first, 3.03 for the second.

Going from TSSASVTTTSNLSGRRTSDVRRP [A12L] to TSSASFTTTSNASGRRTSDVRRP [V6F], the protein stability index falls from 2.53 to 1.93.

Going from TSSASCTTTSNASGRRTSDVRRP [V6C] to TSSASATTTSNASGRRTSDVRRP [V6A], the protein stability index falls from 4.46 to 2.14.

Going from TSSASLTTTSNASGRRTSDVRRP [V6L] to TSSASNTTTSNASGRRTSDVRRP [V6N], the protein stability index rises from 2.31 to 2.44.

First: TSSASTTTTSNASGRRTSDVRRP [V6T]
Second: TSSASRTTTSNASGRRTSDVRRP [V6R]
The protein stability index of the first is higher: 3.08 for the first, 1.97 for the second.

First: TSSASPTTTSNASGRRTSDVRRP [V6P]
Second: TSSASDTTTSNASGRRTSDVRRP [V6D]
The protein stability index of the first is lower: 2.51 for the first, 2.88 for the second.

Compared with TSSASGTTTSNASGRRTSDVRRP [V6G], TSSASQTTTSNASGRRTSDVRRP [V6Q] is lower in protein stability index: 2.71 for the first, 1.69 for the second.

First: TSSASKTTTSNASGRRTSDVRRP [V6K]
Second: TSSASSTTTSNASGRRTSDVRRP [V6S]
The protein stability index of the first is higher: 2.39 for the first, 1.09 for the second.

First: TSSASVTTTSNASGRRHSDVRRP [T17H]
Second: TSSASVTTTSNASGRRYSDVRRP [T17Y]
The protein stability index of the first is higher: 2.66 for the first, 2.3 for the second.

First: TSSASVTTTSNASGRRCSDVRRP [T17C]
Second: TSSASVTTTSNASGRRLSDVRRP [T17L]
The protein stability index of the first is higher: 2.94 for the first, 1.45 for the second.

First: TSSASVTTTSNASGRRMSDVRRP [T17M]
Second: TSSASVTTTSNASGRRESDVRRP [T17E]
The protein stability index of the first is higher: 2.44 for the first, 1.63 for the second.

Compared with TSSASVTTTSNASGRRDSDVRRP [T17D], TSSASVTTTSNASGRRISDVRRP [T17I] is higher in protein stability index: 2.62 for the first, 3.61 for the second.

Going from TSSASVTTTSNASGRRNSDVRRP [T17N] to TSSASVTTTSNASGRRSSDVRRP [T17S], the protein stability index rises from 2.15 to 2.16.

Going from TSSASVTTTSNASGRKTSDVRRP [R16K] to TSSASVTTTSNASGRFTSDVRRP [R16F], the protein stability index rises from 1.59 to 2.27.

Compared with TSSASVTTTSNASGRSTSDVRRP [R16S], TSSASVTTTSNASGRHTSDVRRP [R16H] is higher in protein stability index: 2.11 for the first, 2.37 for the second.

Going from TSSASVTTTSNASGRQTSDVRRP [R16Q] to TSSASVTTTSNASGRCTSDVRRP [R16C], the protein stability index falls from 1.52 to 1.27.

Compared with TSSASVTTTSNASGRWTSDVRRP [R16W], TSSASVTTTSNASGRMTSDVRRP [R16M] is lower in protein stability index: 2.87 for the first, 2.14 for the second.

Compared with TSSASVTTTSNASGRATSDVRRP [R16A], TSSASVTTTSNASGRGTSDVRRP [R16G] is lower in protein stability index: 1.65 for the first, 1.04 for the second.

First: TSSASVTTTSNASGRITSDVRRP [R16I]
Second: TSSASVTTTSNASGRETSDVRRP [R16E]
The protein stability index of the first is higher: 2.33 for the first, 2.08 for the second.

Going from TSSASVTTTSNASGRPTSDVRRP [R16P] to TSSASVTTTSNASGRTTSDVRRP [R16T], the protein stability index rises from 2.52 to 3.07.

Going from TSSASVTTTSNASGRYTSDVRRP [R16Y] to TSSASVTTTSNASGRNTSDVRRP [R16N], the protein stability index falls from 3.97 to 2.05.

First: TSSASVTTTSNASGRDTSDVRRP [R16D]
Second: TSSASVTTTSNASGRRTSDVARP [R21A]
The protein stability index of the first is lower: 1.66 for the first, 5.32 for the second.

Going from TSSASVTTTSNASGRRTSDVCRP [R21C] to TSSASVTTTSNASGYRTSDVRRP [R15Y], the protein stability index falls from 4.97 to 2.03.

Compared with TSSASVTTTSNASGDRTSDVRRP [R15D], TSSASVTTTSNASGFRTSDVRRP [R15F] is lower in protein stability index: 2.25 for the first, 1.88 for the second.

First: TSSASVTTTSNASGLRTSDVRRP [R15L]
Second: TSSASVTTTSNASGNRTSDVRRP [R15N]
The protein stability index of the first is lower: 2.37 for the first, 2.6 for the second.

First: TSSASVTTTSNASGCRTSDVRRP [R15C]
Second: TSSASVTTTSNASGKRTSDVRRP [R15K]
The protein stability index of the first is higher: 2.17 for the first, 1.49 for the second.

Compared with TSSASVTTTSNASGIRTSDVRRP [R15I], TSSASVTTTSNASGPRTSDVRRP [R15P] is lower in protein stability index: 2.36 for the first, 1.73 for the second.

Compared with TSSASVTTTSNASGQRTSDVRRP [R15Q], TSSASVTTTSNASGERTSDVRRP [R15E] is lower in protein stability index: 2.53 for the first, 2.43 for the second.

Going from TSSASVTTTSNASGHRTSDVRRP [R15H] to TSSASVTTTSNASGARTSDVRRP [R15A], the protein stability index falls from 2.61 to 2.17.

First: TSSASVTTTSNASGTRTSDVRRP [R15T]
Second: TSSASVTTDSNASGRRTSDVRRP [T9D]
The protein stability index of the first is lower: 1.94 for the first, 2.05 for the second.

Compared with TSSASVTTNSNASGRRTSDVRRP [T9N], TSSASVTTGSNASGRRTSDVRRP [T9G] is lower in protein stability index: 1.81 for the first, 1.73 for the second.

First: TSSASVTTCSNASGRRTSDVRRP [T9C]
Second: TSSASVTTHSNASGRRTSDVRRP [T9H]
The protein stability index of the first is lower: 1.54 for the first, 3.88 for the second.

Going from TSSASVTTESNASGRRTSDVRRP [T9E] to TSSASVTTKSNASGRRTSDVRRP [T9K], the protein stability index falls from 2.58 to 2.19.

Going from TSSASVTTVSNASGRRTSDVRRP [T9V] to TSSASVTTPSNASGRRTSDVRRP [T9P], the protein stability index falls from 2.72 to 1.97.

Going from TSSASVTTFSNASGRRTSDVRRP [T9F] to TSSASVTTTSVASGRRTSDVRRP [N11V], the protein stability index falls from 2.13 to 1.98.

First: TSSASVTTTSPASGRRTSDVRRP [N11P]
Second: TSSASVTTTSDASGRRTSDVRRP [N11D]
The protein stability index of the first is lower: 1.12 for the first, 1.71 for the second.

Going from TSSASVTTTSFASGRRTSDVRRP [N11F] to TSSASVTTTSYASGRRTSDVRRP [N11Y], the protein stability index rises from 2.92 to 3.34.

Compared with TSSASVTTTSRASGRRTSDVRRP [N11R], TSSASVTTTSLASGRRTSDVRRP [N11L] is higher in protein stability index: 2.36 for the first, 2.98 for the second.

Going from TSSASVTTTSAASGRRTSDVRRP [N11A] to TSSASVTTTSKASGRRTSDVRRP [N11K], the protein stability index falls from 3.09 to 1.86.

Going from TSSASVTTTSHASGRRTSDVRRP [N11H] to TSSASVTTTSTASGRRTSDVRRP [N11T], the protein stability index rises from 1.8 to 2.74.

Going from TSSASVTTTSIASGRRTSDVRRP [N11I] to TSSASVTTTSGASGRRTSDVRRP [N11G], the protein stability index rises from 1.08 to 2.7.

Work on TSSASVTTTSEASGRRTSDVRRP [N11E] yielded a protein stability index of 3.41.
